We go through three proteins from patent US12173330B2, “Method for producing hydroxy-L-pipecolic acid” (API CORPORATION, priority 2015, dated 2024).

Substrate in series [1]: O=C(O)[C@@H]1CCCN1
Put plainly: purified protein, by the assay type. The conditions noted are these: other: substrate: L-proline, 20 mmol/L 2-oxoglutaric acid, 30° C.

Substrate in series [2]: O=C(O)[C@@H]1CCCCN1
Nature of the series: purified protein, by the assay type. The following applies: other: substrate: L-pipecolic acid, 20 mmol/L 2-oxoglutaric acid, 30° C.

B1: Catenulispora acidiphila NBRC102108 L-proline cis-4-hydroxylase CaPH, SEQ ID NO: 6 (Catenulispora acidiphila DSM 44928) (protein)
chain: MRTQYVAALELDEGRLAKDLETSASFNYSEAYSNYLIGGPWKSAMLYSAGGDAGDGLLTDYDYRQSSDFTDYGRQMPYLQELISTSVDLSRLTFVRLARFAKSVIVPHRDFLELEEIPEDKRSAHRLHIPLATHEECFFSEDNVVYRMRAGELWYFDASRIHSVVSFAEEPRIHLIFDFADRPGAGSLVTVPGEPEGAGVPAASAVDRPQLSDAERAALARLADVLTMDTFSEIFSVLVKKHFRRDGGEHFVWDTLTALARACPDPAVLPHTQELRRYFTLERPSGSGQA
The Km is the concentration of substrate that gives half-maximal velocity. As to B1, in series [1], the Michaelis constant (Km) amounted to 8870 µM and the Vmax worked out at 0.02 U/mg-protein.

B2: Xenorhabdus doucetiae FRM16 L-proline cis-4-hydroxylase XdPH, SEQ ID NO: 8 (Xenorhabdus doucetiae) (protein)
chain: MMSAKLLASIELNQEQIEHDLNIVGSEILDVAYSEYACGNWGTITLWNHSGDAGDQTSREYVGQARPTELGQQLDCINQLIRNNFNISLIKSVRIFRSYNGGAIYPHIDYLEFNQGFKRVHLVLKSDRSCLNSEENTVYHMLPGEVWFVDGHSAHSAMSLSRVGKYSLVLDFDSGAKFEDLYSESHTLCVDNLEPDIIHDRQPLPTSLRDSLAHIAEHADEFNIQSILFLATRFHFSYAVSIREYFQLLDECFSRNPYKSVRERYEALKDILVRSGYTSHNVNHFNSLSGVTIG
For the protein B2, in series [1], the Michaelis constant (Km) turned out to be 310 µM. Further, in series [2], the Michaelis constant (Km) is 300 µM and the Vmax is reported as 1.14 U/mg-protein.

B3: Sinorhizobium meliloti 1021 L-proline cis-4-hydroxylase SmPH, SEQ ID NO: 10 (Sinorhizobium meliloti 1021) (protein)
chain: MSTHFLGKVKFDEARLAEDLSTLEVAEFSSAYSDFACGKWEACVLRNRTGMQEEDIVVSHNAPALATPLSKSLPYLNELVETHFDCSAVRYTRIVRVSENACIIPHSDYLELDETFTRLHLVLDTNSGCANTEEDKIFHMGLGEIWFLDAMLPHSAACFSKTPRLHLMIDFEATAFPESFLRNVEQPVTTRDMVDPRKELTDEVIEGILGFSIIISEANYREIVSILAKLHFFYKADCRSMYDWLKEICKRRGDPALIEKTASLERFFLGHRERGEVMTY
Turning to B3, in series [1], the Michaelis-Menten constant (Km) was 580 µM. Moreover, in series [2], the Michaelis constant (Km) worked out at 310 µM and the Vmax amounted to 0.03 U/mg-protein.
